This note sets out measurements from article PMC7082061 (PLoS Pathogens, 2020).

A word on the stoichiometry N: it is the number of molecules, sites or subunits per partner or assembly.

Data set [1] deals with VSV Gth (aa residues 1-422, VSV G fragment that was previously crystallized) (vesicular stomatitis virus). Description: negative staining electron microscopy.
Data set [2] concerns the molecule itself. Description: negative staining electron microscopy.

As to “VSV Gth (aa residues 1-422, VSV G fragment that was previously crystallized) (domain or fragment)”, in data set [1], the stoichiometry N was 3.

B1: MOKV G_(1-436)WT (wild type Mokola virus glycoprotein G ectodomain) (domain or fragment)
chain: EFPLYTIPEKIEKWTPIDMIHLSCPNNLLSEEEGCNAESSFTYFELKSGYLAHQKVPGFTCTGVVNEAETYTNFVGYVTTTFKRKHFRPTVAACRDAYNWKVSGDPRYEESLHTPYPDSSWLRTVTTTKESLLIISPSIVEMDIYGRTLHSPMFPSGVCSNVYPSVPSCETNHDYTLWLPEDPSLSLVCDIFTSSNGKKAMNGSRICGFKDERGFYRSLKGACKLTLCGRPGIRLFDGTWVSFTKPDVHVWCTPNQLINIHNDRLDEIEHLIVEDIIKKREECLDTLETILMSQSVSFRRLSHFRKLVPGYGKAYTILNGSLMETNVYYKRVDKWADILPSKGCLKVGQQCMEPVKGVLFNGIIKGPDGQILIPEMQSEQLKQHMDLLKAAVFPLRHPLISREAVFKKDGDADDFVDLHMPDVHKSVSDVDLGLPH
Take B1: the “stoichiometry N” value in data set [2] turned out to be 3.
